{
  "source": "the supplement of paper PMC7877785",
  "test": "self-splicing fitness, log relative to wild type (ln ratio); higher = more splicing; Tetrahymena group I intron in knt gene, E. coli kanamycin selection, DiMSum; sequences stand for … in CUCUCU…GGAGGGAAAAGUUAUCAGGCAUGCACCUGGUAGCUAGUCUUUAAACCAAUAGAUUGCAUCGGUUUAAAAGGCAAGACCGUCAAAUUGCGGGAAAGGGGUCAACAGCCGUUCAGUACCAAGUCUCAGGGGAAACUUUGAGAUGGCCUUGCAAAGGGUAUGGUAAUAAGCUGACGGACAUGGUCCUAACCACGCAGCCAAGUCCUAAGUCAACAGAUCUUCUGUUGAUAUGGAUGCAGUUCACAGACUAAAUGUCGGUCGGGGAAGAUGUAUUCUUCUCAUAAGAUAUAGUCGGACCUCUCCUUAAUGGGAGCUAGCGGAUGAAGUGAUGCAACACUGGAGCCGCUGGGAACUAAUUUGUAUGCGAAAGUAUAUUGAUUAGUUUUGGAGUACUCGUGGUCG",
  "procedure,_shortened": "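DiMSum derived fitness as the error-weighted combination of fold changes across replicates, kanamycin versus no kanamycin, normalised to wild type. E. coli BL21(DE3) held the library, which randomised all eight P1ex-region intron nucleotides within the knt kanamycin-resistance gene on pET-22b(+). Six replicate transformations grew overnight at 37°C or 30°C on LB agar with or without 25 μg/mL kanamycin, also containing 100 μg/mL carbenicillin, 50 μM IPTG and 0.2% rhamnose, and pooled colonies were amplicon-sequenced on an Illumina HiSeq 2500.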",
  "note": "± gives the uncertainty stated by the source.",
  "data": [
    {"sequence": "AAUAAGCAAUAUUACGAUCU", "values": [
      {"measurement": "self-splicing fitness (ln)", "setting": "30 °C", "result": "0.041 ± 0.069"},
      {"measurement": "self-splicing fitness (ln)", "setting": "37 °C", "result": "0.493 ± 0.087"}
    ]},
    {"sequence": "AAUAAGCAAUAUUACGCAAC", "values": [
      {"measurement": "self-splicing fitness (ln)", "setting": "30 °C", "result": "-2.79 ± 0.3"},
      {"measurement": "self-splicing fitness (ln)", "setting": "37 °C", "result": "-0.975 ± 0.2"}
    ]},
    {"sequence": "AAUAAGCAAUAUUACGCACA", "values": [
      {"measurement": "self-splicing fitness (ln)", "setting": "30 °C", "result": "-0.471 ± 0.099"},
      {"measurement": "self-splicing fitness (ln)", "setting": "37 °C", "result": "0.253 ± 0.13"}
    ]},
    {"sequence": "AAUAAGCAAUAUUACGCAUC", "values": [
      {"measurement": "self-splicing fitness (ln)", "setting": "30 °C", "result": "-2.56 ± 0.12"},
      {"measurement": "self-splicing fitness (ln)", "setting": "37 °C", "result": "-1.66 ± 0.15"}
    ]},
    {"sequence": "AAUAAGCAAUAUUACGCGGG", "values": [
      {"measurement": "self-splicing fitness (ln)", "setting": "30 °C", "result": "-2.62 ± 0.13"},
      {"measurement": "self-splicing fitness (ln)", "setting": "37 °C", "result": "-1.35 ± 0.14"}
    ]},
    {"sequence": "AAUAAGCAAUAUUACGCUCG", "values": [
      {"measurement": "self-splicing fitness (ln)", "setting": "30 °C", "result": "-0.686 ± 0.14"},
      {"measurement": "self-splicing fitness (ln)", "setting": "37 °C", "result": "0.0576 ± 0.19"}
    ]},
    {"sequence": "AAUAAGCAAUAUUACGGAAG", "values": [
      {"measurement": "self-splicing fitness (ln)", "setting": "30 °C", "result": "-3.52 ± 0.28"},
      {"measurement": "self-splicing fitness (ln)", "setting": "37 °C", "result": "-1.86 ± 0.39"}
    ]},
    {"sequence": "AAUAAGCAAUAUUACGGAAU", "values": [
      {"measurement": "self-splicing fitness (ln)", "setting": "30 °C", "result": "-2.69 ± 0.15"},
      {"measurement": "self-splicing fitness (ln)", "setting": "37 °C", "result": "-0.645 ± 0.11"}
    ]},
    {"sequence": "AAUAAGCAAUAUUACGGACG", "values": [
      {"measurement": "self-splicing fitness (ln)", "setting": "30 °C", "result": "-0.851 ± 0.15"},
      {"measurement": "self-splicing fitness (ln)", "setting": "37 °C", "result": "-0.397 ± 0.15"}
    ]},
    {"sequence": "AAUAAGCAAUAUUACGGCGC", "values": [
      {"measurement": "self-splicing fitness (ln)", "setting": "30 °C", "result": "0.251 ± 0.12"},
      {"measurement": "self-splicing fitness (ln)", "setting": "37 °C", "result": "-0.478 ± 0.13"}
    ]},
    {"sequence": "AAUAAGCAAUAUUACGGCUA", "values": [
      {"measurement": "self-splicing fitness (ln)", "setting": "30 °C", "result": "0.107 ± 0.1"},
      {"measurement": "self-splicing fitness (ln)", "setting": "37 °C", "result": "0.0369 ± 0.13"}
    ]},
    {"sequence": "AAUAAGCAAUAUUACGGUGA", "values": [
      {"measurement": "self-splicing fitness (ln)", "setting": "30 °C", "result": "-1.18 ± 0.093"},
      {"measurement": "self-splicing fitness (ln)", "setting": "37 °C", "result": "-0.256 ± 0.11"}
    ]},
    {"sequence": "AAUAAGCAAUAUUACGUACC", "values": [
      {"measurement": "self-splicing fitness (ln)", "setting": "30 °C", "result": "-0.867 ± 0.14"},
      {"measurement": "self-splicing fitness (ln)", "setting": "37 °C", "result": "-0.89 ± 0.15"}
    ]},
    {"sequence": "AAUAAGCAAUAUUACGUAGA", "values": [
      {"measurement": "self-splicing fitness (ln)", "setting": "30 °C", "result": "-1.51 ± 0.11"},
      {"measurement": "self-splicing fitness (ln)", "setting": "37 °C", "result": "-0.998 ± 0.13"}
    ]},
    {"sequence": "AAUAAGCAAUAUUACGUCCC", "values": [
      {"measurement": "self-splicing fitness (ln)", "setting": "30 °C", "result": "-0.502 ± 0.17"},
      {"measurement": "self-splicing fitness (ln)", "setting": "37 °C", "result": "0.393 ± 0.26"}
    ]},
    {"sequence": "AAUAAGCAAUAUUACGUUAC", "values": [
      {"measurement": "self-splicing fitness (ln)", "setting": "30 °C", "result": "-3.62 ± 0.18"},
      {"measurement": "self-splicing fitness (ln)", "setting": "37 °C", "result": "-1.39 ± 0.14"}
    ]},
    {"sequence": "AAUCAGCAAUAUUACGAGAC", "values": [
      {"measurement": "self-splicing fitness (ln)", "setting": "30 °C", "result": "-3.64 ± 0.27"},
      {"measurement": "self-splicing fitness (ln)", "setting": "37 °C", "result": "-0.528 ± 0.12"}
    ]},
    {"sequence": "AAUCAGCAAUAUUACGAGGA", "values": [
      {"measurement": "self-splicing fitness (ln)", "setting": "30 °C", "result": "-2.13 ± 0.12"},
      {"measurement": "self-splicing fitness (ln)", "setting": "37 °C", "result": "-1.23 ± 0.11"}
    ]},
    {"sequence": "AAUCAGCAAUAUUACGAUGU", "values": [
      {"measurement": "self-splicing fitness (ln)", "setting": "30 °C", "result": "0.218 ± 0.053"},
      {"measurement": "self-splicing fitness (ln)", "setting": "37 °C", "result": "0.543 ± 0.08"}
    ]},
    {"sequence": "AAUCAGCAAUAUUACGCAAC", "values": [
      {"measurement": "self-splicing fitness (ln)", "setting": "30 °C", "result": "-1.32 ± 0.11"},
      {"measurement": "self-splicing fitness (ln)", "setting": "37 °C", "result": "-0.666 ± 0.13"}
    ]},
    {"sequence": "AAUCAGCAAUAUUACGCAGC", "values": [
      {"measurement": "self-splicing fitness (ln)", "setting": "30 °C", "result": "-1.36 ± 0.15"},
      {"measurement": "self-splicing fitness (ln)", "setting": "37 °C", "result": "-0.207 ± 0.14"}
    ]},
    {"sequence": "AAUCAGCAAUAUUACGCAUG", "values": [
      {"measurement": "self-splicing fitness (ln)", "setting": "30 °C", "result": "-0.409 ± 0.038"},
      {"measurement": "self-splicing fitness (ln)", "setting": "37 °C", "result": "0.349 ± 0.058"}
    ]},
    {"sequence": "AAUCAGCAAUAUUACGCGCG", "values": [
      {"measurement": "self-splicing fitness (ln)", "setting": "30 °C", "result": "0.0814 ± 0.079"},
      {"measurement": "self-splicing fitness (ln)", "setting": "37 °C", "result": "-0.098 ± 0.1"}
    ]},
    {"sequence": "AAUCAGCAAUAUUACGCGGG", "values": [
      {"measurement": "self-splicing fitness (ln)", "setting": "30 °C", "result": "-1.33 ± 0.095"},
      {"measurement": "self-splicing fitness (ln)", "setting": "37 °C", "result": "-1.42 ± 0.099"}
    ]},
    {"sequence": "AAUCAGCAAUAUUACGCGGU", "values": [
      {"measurement": "self-splicing fitness (ln)", "setting": "30 °C", "result": "-2.35 ± 0.12"},
      {"measurement": "self-splicing fitness (ln)", "setting": "37 °C", "result": "-1.14 ± 0.14"}
    ]},
    {"sequence": "AAUCAGCAAUAUUACGCUCA", "values": [
      {"measurement": "self-splicing fitness (ln)", "setting": "30 °C", "result": "0.294 ± 0.074"},
      {"measurement": "self-splicing fitness (ln)", "setting": "37 °C", "result": "0.323 ± 0.1"}
    ]},
    {"sequence": "AAUCAGCAAUAUUACGCUCU", "values": [
      {"measurement": "self-splicing fitness (ln)", "setting": "30 °C", "result": "-0.00647 ± 0.077"},
      {"measurement": "self-splicing fitness (ln)", "setting": "37 °C", "result": "0.0812 ± 0.097"}
    ]},
    {"sequence": "AAUCAGCAAUAUUACGCUGA", "values": [
      {"measurement": "self-splicing fitness (ln)", "setting": "30 °C", "result": "-2.61 ± 0.17"},
      {"measurement": "self-splicing fitness (ln)", "setting": "37 °C", "result": "-1.76 ± 0.24"}
    ]},
    {"sequence": "AAUCAGCAAUAUUACGCUUC", "values": [
      {"measurement": "self-splicing fitness (ln)", "setting": "30 °C", "result": "-1.77 ± 0.069"},
      {"measurement": "self-splicing fitness (ln)", "setting": "37 °C", "result": "-0.398 ± 0.088"}
    ]},
    {"sequence": "AAUCAGCAAUAUUACGGACG", "values": [
      {"measurement": "self-splicing fitness (ln)", "setting": "30 °C", "result": "-0.448 ± 0.068"},
      {"measurement": "self-splicing fitness (ln)", "setting": "37 °C", "result": "0.478 ± 0.12"}
    ]},
    {"sequence": "AAUCAGCAAUAUUACGGCUA", "values": [
      {"measurement": "self-splicing fitness (ln)", "setting": "30 °C", "result": "-0.0319 ± 0.079"},
      {"measurement": "self-splicing fitness (ln)", "setting": "37 °C", "result": "0.406 ± 0.094"}
    ]},
    {"sequence": "AAUCAGCAAUAUUACGUACU", "values": [
      {"measurement": "self-splicing fitness (ln)", "setting": "30 °C", "result": "0.336 ± 0.084"},
      {"measurement": "self-splicing fitness (ln)", "setting": "37 °C", "result": "0.692 ± 0.11"}
    ]},
    {"sequence": "AAUCAGCAAUAUUACGUAUC", "values": [
      {"measurement": "self-splicing fitness (ln)", "setting": "30 °C", "result": "-0.504 ± 0.044"},
      {"measurement": "self-splicing fitness (ln)", "setting": "37 °C", "result": "0.251 ± 0.068"}
    ]}
  ]
}
